The record followed here is article PMC5056459, “Antagonistic roles of Drosophila Tctp and Brahma in chromatin remodelling and stabilizing repeated sequences” (Nature Communications, 2016).

In this test the target is T1, GST-Brm 304-747 (Drosophila, UniProt P25439 304-747).
T1 construct: in pGEX5X-1; also called middle part of Brm protein; source: E. coli Rosetta2, extracted and dialysed
Kind of test: pull-down; GST-Brm fragments as baits, MBP-Tctp as prey, 5 micrograms each; PDB (20 mM Tris-HCl pH 7.5, 150 mM NaCl, 0.5 mM EDTA, 10% glycerol, 0.1% Triton X-100, 1 mM DTT) with 0.2% BSA, 2-3 h at 4 °C; western blot with anti-GST and anti-MBP; proteins extracted from E. coli and dialysed. As to conditions: both partners purified. (In general: Immunoblotting shows a protein as a band on a membrane.)

T1 sequence (P25439 304-747): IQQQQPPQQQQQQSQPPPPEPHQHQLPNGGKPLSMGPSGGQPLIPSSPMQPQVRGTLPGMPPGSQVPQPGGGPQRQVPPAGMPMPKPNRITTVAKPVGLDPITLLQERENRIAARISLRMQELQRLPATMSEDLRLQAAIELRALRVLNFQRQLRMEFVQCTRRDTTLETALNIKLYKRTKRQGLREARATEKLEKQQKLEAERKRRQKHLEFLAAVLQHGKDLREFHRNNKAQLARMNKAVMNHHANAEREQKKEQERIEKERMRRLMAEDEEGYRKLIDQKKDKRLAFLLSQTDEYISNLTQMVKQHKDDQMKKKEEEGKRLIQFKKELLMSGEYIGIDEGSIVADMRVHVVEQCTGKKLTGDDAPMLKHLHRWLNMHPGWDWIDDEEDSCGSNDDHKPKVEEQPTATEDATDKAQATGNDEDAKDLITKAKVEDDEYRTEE

B1: MBP-Tctp (natural protein, Drosophila, UniProt Q9VGS2 1-172, looked up)
chain: MKIYKDIITGDEMFADTYKMKLVDDVIYEVYGKLITRQGDDIKLEGANASAEEADEGTDITSESGVDVVLNHRLTECFAFGDKKSYTLYLKDYMKKVLAKLEEKSPDQVDIFKTNMNKAMKDILGRFKELQFFTGESMDCDGMVALVEYREINGDSVPVLMFFKHGLEEEKC
notes: Drosophila Tctp in pMAL-c2; also called MBP-tagged Tctp; source: E. coli Rosetta2, extracted and dialysed
For the molecule B1, the binding result was “binds”.
